Source: the supplement of paper PMC10567573

B1: RSPH3 (parent)
chain: LELQRQREARKRALARKQAQEQLR

Variants of: B1
Experiment: protein stability index of a GFP-peptide fusion (GPS, HEK-293T) (PSI 1-6); higher = more stable
Conditions: c terminus: a fixed tail appended
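Further: lentivirally expressed fusions sorted by FACS into six bins by GFP to DsRed ratio, PSI derived from sequencing read proportions per bin multiplied by bin number.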

Variant | protein stability index
E21M | 3.75
E21P | 3.45
E21T | 3.81
E21W | 3.48
E21A | 2.72
E21N | 3.87
E21C | 3.01
E21Y | 3
E21L | 3.48
E21R | 3.99
E21V | 3.31
E21I | 3.33
E21Q | 3.23
E21G | 3.09
E21S | 3.73
E21D | 3.62
E21F | 2.93
E21H | 3.23
E21K | 4.28
A19N | 4.08
A19H | 4.33
A19Y | 2.92
A19D | 4.37
A19G | 3.53

Variant | protein stability index
A19V | 3.27
A19M | 3.37
A19S | 4.17
A19T | 4
A19E | 3.28
A19P | 3.72
A19L | 3.09
A19W | 3.15
A19K | 4.08
A19F | 3.08
A19I | 3.55
A19C | 4.22
A19Q | 4.54
Q20H | 3.77
Q20P | 4.32
Q20N | 3.11
Q20C | 3.35
Q20G | 3.52
Q20T | 3.79
Q20R | 3.79
Q20V | 3.78
Q20K | 4.38
Q20A | 3.61
Q20L | 2.8

Variant | protein stability index
Q20S | 3.77
Q20F | 2.02
Q20W | 2.04
Q20Y | 2.45
Q20D | 4.74
Q20M | 2.88
Q20I | 3.47
Q20E | 4.48
Q22P | 3.79
Q22A | 4.19
Q22F | 3.04
Q22H | 2.95
Q22D | 4.29
Q22W | 2.8
Q22C | 3.11
Q22M | 2.92
Q22S | 3.5
Q22T | 3.16
Q22N | 4.14
Q22E | 3.8
Q22L | 3.63
Q22V | 3.37
Q22K | 3.77
Q22Y | 3.01

Variant | protein stability index
Q22R | 3.93
Q22G | 4.22
Q22I | 2.65
K17G | 4.66
K17I | 3.77
K17R | 4.38
K17T | 4.43
K17P | 4.48
K17F | 3.95
K17W | 3.44
K17D | 3.92
K17C | 3.77
K17Y | 3.71
K17N | 4.45
K17E | 4.69
K17Q | 4.15
K17M | 4.14
K17L | 3.97
K17V | 4.31
K17S | 4.21
K17A | 4.1
K17H | 4.17
R16A | 4.19
R16K | 3.93

Variant | protein stability index
R16L | 4.25
R16S | 3.27
R16T | 4.02
R16V | 3.17
R16Y | 3.4
R16H | 4.14
R16I | 3.7
R16P | 4.32
R16E | 4.26
R16F | 3.43
R16Q | 3.96
R16M | 3.39
R16W | 3.74
R16D | 3.99
R16N | 4.6
R16C | 3.57
R16G | 4.46
A15S | 4.04
A15H | 3.96
A15M | 2.79
A15R | 3.15
A15G | 4.12
A15E | 4.31
A15K | 3.57

Variant | protein stability index
A15Q | 2.39
A15D | 3.94
A15P | 4.2
A15N | 4.32
A15V | 3.69
A15Y | 3.61
A15L | 4.05
A15C | 3.42
A15W | 3.53
A15I | 3.15
A15F | 3.56
Q18R | 3.64
Q18P | 4.32
Q18E | 3.86
Q18V | 2.56
Q18L | 3.13
Q18T | 4.05
Q18F | 3.53
Q18H | 3.11
Q18Y | 2.81
Q18C | 2.81
Q18W | 2.5
Q18M | 3.46
Q18K | 3.39

Variant | protein stability index
Q18G | 3.4
Q18S | 3.38
Q18I | 2.33
Q18A | 3.12
Q18N | 3.68
L23A | 4.96
L23D | 4.42
L23C | 4.26
L14P | 4.39
L14H | 4.32
L14R | 4.4
L14G | 4.75
L14Y | 3.22
L14F | 3.74
L14W | 2.65
L14M | 3.32
L14N | 4.04
L14Q | 4.53
L14I | 3.67
L14T | 4.19
L14K | 3.46
L14V | 4.13
L14S | 4.42
